Substitutions are numbered along the chain they refer to.
T1: recombinant human CTGF protein (R&D Systems, SEQ ID NO: 79) (human, UniProt P29279 27-349)
T1 construct: Bought; also called human CTGF/CNN2; huCTGF
T1 sequence: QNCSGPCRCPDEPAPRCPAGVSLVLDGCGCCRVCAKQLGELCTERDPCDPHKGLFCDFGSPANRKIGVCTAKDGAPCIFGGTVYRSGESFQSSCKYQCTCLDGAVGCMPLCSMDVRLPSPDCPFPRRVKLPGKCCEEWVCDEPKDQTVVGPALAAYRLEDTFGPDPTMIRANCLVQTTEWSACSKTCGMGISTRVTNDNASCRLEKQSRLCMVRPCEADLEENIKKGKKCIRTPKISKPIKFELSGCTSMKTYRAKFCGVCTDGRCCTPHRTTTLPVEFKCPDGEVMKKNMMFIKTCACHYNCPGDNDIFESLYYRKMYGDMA

B1: fusion protein of SEQ ID NO: 69 (designed binder)
chain: QDSTSDLIPAPPLSKVPLQQNFQDNQFQGKWYVVGLAGNAILREDKQPAKMFATIYELKEDKSYDVTSVRFEAKSCSYTSKTFVPGSQPGEFTAGNIKSAPGQTSTLVRVVSTNYNQHAMVFFKHVSQNRETFVITLYGRTKELTSELKENFIRFSKSLGLPENHIVFPVPIDQCIDGGGGGSGGGGSGGGGSQDSTSDLIPAPPLSKVPLQQNFQDNQFQGKWYVVGLAGNYRLREDKDPSKMGATIYELKEDKSYDVTQVQFDDKKCLYVIETFVPGSQPGEFTLGAIKSYPGLTSQLVRVVSTNYNQHAMVFVKKVWPNLEYFQIVLYGRTKELTSELKENFIRFSKSLGLPENHIVFPVPIDQCIDG
notes: not shown: C-terminal His-tag
B2: fusion protein of SEQ ID NO: 72 (designed binder)
chain: B1 chain with Q47Y, A73N, S77V, S80I, A94T, T132F
notes: not shown: C-terminal His-tag
B3: fusion protein of SEQ ID NO: 75 (designed binder)
chain: B1 chain with S77K, S80I, N96Y, S127T, T132I
notes: not shown: C-terminal His-tag
B4: fusion protein of SEQ ID NO: 70 (designed binder)
chain: QDSTSDLIPAPPLSKVPLQQNFQDNQFQGKWYVVGWAGNVKLREDKQPQKMSATIYELKEDKSYDVTEVVFEQKKCHYIIKTFVPGSQPGEFTAGDIKSPPGYTSSLVRVVSTNYNQHAMVFFKKVSQNREFFWITLYGRTKELTSELKENFIRFSKSLGLPENHIVFPVPIDQCIDGGGGGSGGGGSGGGGSQDSTSDLIPAPPLSKVPLQQNFQDNQFQGKWYVVGLAGNAILREDKQPAKMFATIYELKEDKSYDVTSVRFEAKSCKYTIKTFVPGSQPGEFTAGYIKSAPGQTSTLVRVVSTNYNQHAMVFFKHVTQNREIFVITLYGRTKELTSELKENFIRFSKSLGLPENHIVFPVPIDQCIDG
notes: not shown: C-terminal His-tag
B5: fusion protein of SEQ ID NO: 65 (designed binder)
chain: QDSTSDLIPAPPLSKVPLQQNFQDNQFHGKWYVVGRAGNNRLREDKDPPKMWATIYELKEDKSYDVTHVHFMTKKCRYIIDTFVPGSQPGEFTLGAIKSGPGMTSPLVRIVSTNYNQHAMVFFKWVNQNREWFTITLYGRTKELTSELKENFIRFSKSLGLPENHIVFPVPIDQCIDGGGGGSGGGGSGGGGSQDSTSDLIPAPPLSKVPLQQNFQDNQFHGKWYVVGLAGNKILRIDKQPAKMFATIYELKEDKSYDVTSVRFEARSCSYTIKTFVPGSQPGEFTAGNIKSAPGQTSTLVRVVSTNYNQHAMVFFKHVSQNRETFVITLYGRTKELTSELKENFIRFSKSLGLPENHIVFPVPIDQCIDG
B6: fusion protein of SEQ ID NO: 66 (designed binder)
chain: QDSTSDLIPAPPLSKVPLQQNFQDNQFHGKWYVVGLAGNKILRIDKQPAKMFATIYELKEDKSYDVTSVRFEARSCSYTIKTFVPGSQPGEFTAGNIKSAPGQTSTLVRVVSTNYNQHAMVFFKHVSQNRETFVITLYGRTKELTSELKENFIRFSKSLGLPENHIVFPVPIDQCIDGGGGGSGGGGSGGGGSQDSTSDLIPAPPLSKVPLQQNFQDNQFHGKWYVVGRAGNNRLREDKDPPKMWATIYELKEDKSYDVTHVHFMTKKCRYIIDTFVPGSQPGEFTLGAIKSGPGMTSPLVRIVSTNYNQHAMVFFKWVNQNREWFTITLYGRTKELTSELKENFIRFSKSLGLPENHIVFPVPIDQCIDG
B7: fusion protein of SEQ ID NO: 67 (designed binder)
chain: QDSTSDLIPAPPLSKVPLQQNFQDNQFHGKWYVVGLAGNKILRIDKQPAKMFATIYELKEDKSYDVTSVRFEARSCSYTIKTFVPGSQPGEFTAGNIKSAPGQTSTLVRVVSTNYNQHAMVFFKHVSQNRETFVITLYGRTKELTSELKENFIRFSKSLGLPENHIVFPVPIDQCIDGGGGGSGGGGSGGGGSQDSTSDLIPAPPLSKVPLQQNFQDNQFHGKWYVVGWAGNIKLREDKDPFKMSATIYELKEDKSYDVTEVVFEQKKCHYIIKTFVPGSQPGEFTLGDIKSPPGETSSLVRVVSTNYNQHAMVFFKKVFQNREFFWITLYGRTKELTSELKENFIRFSKSLGLPENHIVFPVPIDQCIDG

Columns and labels:
[1] = molecular target: T1, recombinant human CTGF protein (R&D …); test: HTRF, 1 nM biotinylated human CTGF
Description: Binding of some fusion proteins was tested by a Homogeneous Time Resolved Fluorescence (HTRF assay). In detail, 1 nM of biotinylated human CTGF (R&D Systems) was incubated for 1 h with a titration of some lipocalins starting at 5 nM in 384 Flat Bottom White Polystyrol microtiter plate (Greiner). Samples were diluted in PBS containing 0.1% Tween 20 and 2% BSA. As donor, Streptavidin-Terbium at a concentration of 0,006 μg/mL was used, the acceptor was 0.2 μg/mL anti-His-d2 (both CisBio). After another 1 h of incubation, the fluorescence intensity of the donor and acceptor on the plate was read using a fluorescence microplate reader M1000 (Tecan) with the standard settings recommended by CisBio. The calculated ratio of signals was used for the curve fitting performed in GraphPad Prism 7 software.

[2] = molecular target: T1, recombinant human CTGF protein (R&D …); test: ELISA, coated human CTGF
Description: Binding of fusion proteins was tested by an ELISA assay. In detail, a 384-well plate suitable for fluorescence measurements (Greiner FLUOTRAC™ 600, black flat bottom, high-binding) was coated with 20 μl of human CTGF (R&D Systems) at a concentration of 1 μg/ml in PBS over night at 4° C. After washing with PBS with 0.05% Tween 20, wells were blocked with 100 μl blocking buffer containing 0.1% Tween 20 and 2% BSA (PBS-T/BSA) for 1 h at room temperature. 20 μl of serially diluted muteins were incubated in PBS-T/BSA for 1 h at room temperature (RT).
The residual supernatants were discarded and 20 μl HRP-labeled anti-NGAL or anti-His-Tag antibody was added at a predetermined optimal concentration in PBS-T/BSA and incubated for 1 h at RT. After washing, 20 μl fluorogenic HRP substrate (QuantaBlu, Thermo) was added to each well, and the reaction was allowed to proceed for 2 to 60 minutes. The fluorescence intensity of every well on the plate was read using a fluorescence microplate reader (Tecan). Curve fitting was performed using GraphPad Prism 7 or 8 software.

| Binder | EC50 [1] | EC50 [2] |
| --- | --- | --- |
| B1 | 0.65 nM |  |
| B2 | 0.68 nM |  |
| B3 | 0.7 nM |  |
| B4 | 0.72 nM |  |
| B5 |  | 0.61 nM |
| B6 |  | 1.2 nM |
| B7 |  | 1 nM |
